According to patent US11473061B2, “Systems and methods for growth of intestinal cells in microfluidic devices” (Cedars-Sinai Medical Center, priority 2016, dated 2022):

Assays:
iHTNs = experiment: Seahorse mitochondrial stress test in iHTNs; type: cell-based, human; details: low-dose EDC treatment
Protocol: (§2) The Seahorse XF^e24 Extracellular Flux Analyzer (Seahorse Biosciences) was used to perform mitochondrial stress tests and obtain real-time measurements of oxygen consumption rate (OCR) in cells. iFGEs and iHTNS treated with or without EDCs were seeded in a 24-well Seahorse culture plate at a density of 10,000-15,000 cells/well. For analysis of OCR, cells were reconstituted in Seahorse base medium and were allowed to settle for 1 hour at 37° C. in non-CO2 incubator before measurements. Chemical reagents (Sigma) were used at final concentrations as follows: 1 μM Oligomycin—an ATP synthase inhibitor, 1 μM (FCCP) carbonyl cyanide 4-(trifluoromethoxy)phenylhydrazone—an uncoupling agent, and a mixture of 0.50 μM antimycin A—a cytochrome C reductase inhibitor and 0.5 μM rotenone—a complex I inhibitor. Results were normalized to protein concentration determined by BCA assay (Thermo Scientific).

iFGEs = experiment: Seahorse mitochondrial stress test in iFGEs; type: cell-based, human; details: low-dose EDC treatment
Protocol: as §2

[1] = system: human intestinal epithelial cells derived from IPSCs; experiment: Dextran FITC permeability of iPSC-derived intestinal epithelium; type: cell-based; details: for basal accumulation of FITC dextran: after addition to the apical layer; for permeability co-efficient (FITC dextran added to the apical channel): microfluidic chips
Protocol: (§1) Human intestinal epithelial cells derived from IPSCs were treated with 10 ng/ml of IFNgamma. The basal administration of IFNg leads to a decrease in transepithelial resistance and an increase in the efflux of dextran FITC in human intestinal epithelial cells derived from IPSCs. Basically this means that the intestinal epithelium is more permeable in response to this cytokine.

[2] = system: human intestinal epithelial cells derived from IPSCs; experiment: Transepithelial electrical resistance (TEER) in microfluidic chips; type: cell-based; details: 10 ng/ml of IFNgamma, basal administration, over time
Protocol: as §1

hindgut intestinal cells = experiment: TEER of hindgut intestinal cells grown in transwell; type: cell-based, human; details: for TEER / transepithelial resistance: transwell, compared to control
Text: FIG. 76. Depiction of exemplary transwell apparatus, including deposit of cells on a membrane and measurement of electrical properties via electrodes spanning both sides of the chamber.
FIG. 79. TEER measurement of hindgut intestinal cells growth in transwell.
FIG. 81. Another depiction of IFNγ responsiveness for cells grown in a transwell system.

Caco2 cells = experiment: IFNgamma response of Caco-2 cells on chips; type: cell-based, human
[3] = system: STAT1 and IFNgamma responsive genes; experiment: IFNgamma response of iPSC-derived intestinal cells in small microfluidic device; type: cell-based, human; details: IFNgamma administered to the lower channel
Protocol: In one embodiment, iPSCs were directed to form HIOs and were subsequently dissociated to a single cell suspension. These cells were then seeded into a small microfluidic device (SMD) which is composed of two chambers separated by a porous flexible membrane. See, FIG. 40.

[4] = human intestinal epithelial cells derived from IPSCs

Molecule: tributyltin [TBT]
- effect on spare respiratory capacity (iHTNs): significant impairment

Molecule: O=C(O)C(F)(F)C(F)(F)C(F)(F)C(F)(F)C(F)(F)C(F)(F)C(F)(F)F [PFOA, perfluorooctanoic acid]
- effect on spare respiratory capacity (iHTNs): did not show any effect
- effect on spare respiratory capacity (iFGEs): did not show any effect

Molecule: TNFalpha
- basal accumulation of FITC dextran [1, 4]: comparable
- intestinal permeability ([1]; human intestinal epithelial cells derived from IPSCs, microfluidic cultures): does not elicit any change
- permeability co-efficient (FITC dextran added to the apical channel) [1]: comparable
- transepithelial electrical resistance (TEER) ([2]; n=4): increased TEER over time comparable to controls
- intestinal permeability (hindgut intestinal cells; transwell system): does not elicit any change

B1: IFNgamma: inflammatory cytokine interferon-gamma (protein, UniProt P01579 24-161, looked up)
Interferon gamma: QDPYVKEAENLKKYFNAGHSDVADNGTLFLGILKNWKEESDRKIMQSQIVSFYFKLFKNFKDDQSIQKSVETIKEDMNVKFFNSNKKKRDDFEKLTNYSVTDLNVQRKAIHELIQVMAELSPAAKTGKRKRSQMLFRG
- efflux of dextran FITC [1, 4]: increase
- basal accumulation of FITC dextran ([1]; human intestinal epithelial cells derived from IPSCs, listed as IFNγ): basal accumulation
- permeability co-efficient (FITC dextran added to the apical channel) [1]: increase
- genes associated with intestinal epithelial subtypes (Caco2 cells; Caco2 cells): no corresponding upregulation
- response to IFN-gamma (relative expression of gene markers) (Caco2 cells; Caco-2 epithelial cells grown on chips vs enteroids grown on chips): do not show the same response
- IFNgamma responsive genes (IDO1, GBP4 and/or GBP5) [3]: significant upregulation
- phospholipase A2 group 2A and Muc4 expression [3]: upregulated
- phosphorylation of STAT1 [3]: phosphorylation
- transepithelial electrical resistance (TEER) ([2]; n=4): loss
- transepithelial electrical resistance (TEER) ([2]; n=4, listed as IFNg): decrease
- TEER / transepithelial resistance (hindgut intestinal cells): decrease
- TEER / transepithelial resistance (hindgut intestinal cells; listed as IFNγ): increase
